Test results as given in patent US9777300 (University of California, dated 2017).

T1: E. coli FhuA, outer membrane iron transporter protein (E. coli, UniProt P06971 34-747)
T1 construct: whole, on cells; also called outer membrane iron-transporter (E. coli)
T1 sequence: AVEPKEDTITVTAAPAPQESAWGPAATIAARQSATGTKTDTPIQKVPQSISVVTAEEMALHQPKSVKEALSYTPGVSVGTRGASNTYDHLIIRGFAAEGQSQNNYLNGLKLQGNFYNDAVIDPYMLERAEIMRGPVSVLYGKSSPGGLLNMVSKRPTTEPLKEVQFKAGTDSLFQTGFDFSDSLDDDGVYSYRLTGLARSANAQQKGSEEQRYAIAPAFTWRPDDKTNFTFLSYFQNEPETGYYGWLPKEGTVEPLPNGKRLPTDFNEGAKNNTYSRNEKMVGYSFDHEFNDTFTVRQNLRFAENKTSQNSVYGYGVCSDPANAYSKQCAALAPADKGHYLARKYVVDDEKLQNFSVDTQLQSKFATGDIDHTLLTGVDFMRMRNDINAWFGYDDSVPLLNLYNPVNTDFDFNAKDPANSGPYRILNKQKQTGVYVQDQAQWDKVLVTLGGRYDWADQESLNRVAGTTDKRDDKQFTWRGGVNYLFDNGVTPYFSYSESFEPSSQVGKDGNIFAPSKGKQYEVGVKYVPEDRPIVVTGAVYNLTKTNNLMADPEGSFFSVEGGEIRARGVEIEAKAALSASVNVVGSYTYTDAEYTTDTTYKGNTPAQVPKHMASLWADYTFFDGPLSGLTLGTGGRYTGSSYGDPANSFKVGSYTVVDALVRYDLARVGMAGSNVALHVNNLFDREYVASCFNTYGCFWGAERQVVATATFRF

B1: Bacteriophage T5 protein pb5 expressed in E. coli with a 6x-His tag (ligand)
chain: MSFFAGKLNNKSILSLRRGSGGDTNQHINPDSQTIFHSDMSHVIITETHSTGLRLDQGAGDYYWSEMPSRVTQLHNNDPNRVVLTEIEFSDGSRHMLSGMSMGVGAKAYGIINPQIMSQGGLKTQITASADLSLDVGYFNTGTSGTIPQKLRDGTGCQHMFGAFSGRRGFASSAMYLGGAALYKSAWSGSGYVVADAGTLTIPSDYVRHPGARNFGFNAIYVRGRSCNRVLYGMEGPNYTTGGAVQGASSSGALNFTYNPSNPESPKYSVGFARADPTNYAYWESMGDPNDSANGPIGIYSEHLGIYPSKITWYVTNLVYNGSGYNIDGGLFNGNDIKLSPREFIIKGVNVNNTSWKFINFIEKNFNVGNRADFRDVGCNLSKDSPSTGISGIATFGLPTTESNNAPSIKGGNVGGLHANVVSIYNFLPSASWYVSSNPPKIGNNYGDVWSENLLPLRLLGGSGSTILSGNIVFQGNGSVHVGTVGLDLNSSRNGAIVCTMEFIDDTWLSAGGIGCFNPTEMLSQGAEYGDSRFRIGGNTINKKLHQILSLPAGEYVPFFTIKGTVVNACKLQAAAYNPTPYWVSGLPGSVGQTGYYTLTYYMRNDGNNNISIWLDSSMSNIIGMKACLPNIKLIIQRLT
notes: it is placed C-terminal here only because of the label 'pb5-His'; also called pb5-His; His-pb5; not shown: 6x-His tag
B2: Qdot-pb5 conjugate (CdSe/ZnS quantum dots conjugated to pb5 by carbodiimide coupling) (other)
chain: B1 chain
modifications: CdSe/ZnS quantum dot (Qdot) coupled by carbodiimide (EDC) chemistry; site of coupling and number of pb5 per Qdot not stated
notes: Two colours were used in the pulse labeling (Qdot532-pb5, Qdot602-pb5); the protein part is the same purified His-tagged pb5; also called Qdot-pb5s; Qdot532-pb5; not shown: 6x-His tag of the purified pb5

Legend:
[1] = biological target: T1, E. coli FhuA, outer membrane iron …; experiment: fluorescence microscopy, live E. coli cells expressing FhuA, 50 nM His-tagged pb5, detected with fluorescent anti-His antibody
[2] = biological target: T1, E. coli FhuA, outer membrane iron …; experiment: flow cytometry, FhuA on E. coli cells against FhuA on R. eutropha cells (FIG. 14E)
[3] = biological target: T1, E. coli FhuA, outer membrane iron …; experiment: flow cytometry titration with 2.5 to 20 nM Qdot-pb5, FhuA on R. eutropha cells against FhuA on E. coli cells (FIG. 19)

Row | Binder | binding result [1] | fold binding efficiency, E. coli cells against R. eutropha cells [2] | fold lower total binding, R. eutropha cells against E. coli cells [3]
1 | B1 | binds |  | 
2 | B2 |  | ~3.4 fold | ~3.4 times lower
